T1: human CEACAM5 (carcinoembryonic antigen, CEA), cell surface (human, UniProt P06731 35-685)
T1 construct: whole, on cells; also called CD66e
T1 sequence (looked up): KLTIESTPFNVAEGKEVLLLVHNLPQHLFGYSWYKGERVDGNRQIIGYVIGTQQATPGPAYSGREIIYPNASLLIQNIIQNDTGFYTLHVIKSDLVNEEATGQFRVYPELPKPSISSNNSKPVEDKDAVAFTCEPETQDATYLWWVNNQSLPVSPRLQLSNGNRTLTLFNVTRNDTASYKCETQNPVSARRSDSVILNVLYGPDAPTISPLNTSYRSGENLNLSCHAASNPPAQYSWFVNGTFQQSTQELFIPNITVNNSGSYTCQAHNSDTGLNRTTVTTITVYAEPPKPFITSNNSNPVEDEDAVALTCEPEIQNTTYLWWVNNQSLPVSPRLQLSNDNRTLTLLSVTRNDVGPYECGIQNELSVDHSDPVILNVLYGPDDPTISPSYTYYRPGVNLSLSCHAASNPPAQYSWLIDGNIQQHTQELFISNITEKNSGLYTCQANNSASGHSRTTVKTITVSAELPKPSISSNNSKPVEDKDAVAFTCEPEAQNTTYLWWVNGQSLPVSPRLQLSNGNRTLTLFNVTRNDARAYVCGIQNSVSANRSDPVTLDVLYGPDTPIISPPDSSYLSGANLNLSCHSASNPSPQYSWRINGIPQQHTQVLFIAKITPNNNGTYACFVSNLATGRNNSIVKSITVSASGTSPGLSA

T2: human CEACAM3 (human, UniProt P40198 35-252)
T2 construct: whole, on cells
T2 sequence (looked up): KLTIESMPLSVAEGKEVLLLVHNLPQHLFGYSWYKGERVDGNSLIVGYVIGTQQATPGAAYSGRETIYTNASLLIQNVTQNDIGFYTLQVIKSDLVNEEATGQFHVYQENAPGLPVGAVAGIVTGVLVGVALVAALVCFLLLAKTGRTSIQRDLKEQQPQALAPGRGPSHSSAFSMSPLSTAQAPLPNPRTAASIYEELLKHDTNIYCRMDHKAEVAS

T3: human CEACAM4 (human, UniProt O75871 36-244)
T3 construct: whole, on cells
T3 sequence (looked up): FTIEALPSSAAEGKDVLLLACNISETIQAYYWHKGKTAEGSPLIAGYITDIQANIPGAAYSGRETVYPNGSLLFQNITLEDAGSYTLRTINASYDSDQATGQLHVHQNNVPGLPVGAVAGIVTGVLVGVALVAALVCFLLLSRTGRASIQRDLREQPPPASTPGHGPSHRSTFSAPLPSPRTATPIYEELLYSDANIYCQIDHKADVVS

T4: human CEACAM1 (human, UniProt P13688 35-526)
T4 construct: whole, on cells
T4 sequence (looked up): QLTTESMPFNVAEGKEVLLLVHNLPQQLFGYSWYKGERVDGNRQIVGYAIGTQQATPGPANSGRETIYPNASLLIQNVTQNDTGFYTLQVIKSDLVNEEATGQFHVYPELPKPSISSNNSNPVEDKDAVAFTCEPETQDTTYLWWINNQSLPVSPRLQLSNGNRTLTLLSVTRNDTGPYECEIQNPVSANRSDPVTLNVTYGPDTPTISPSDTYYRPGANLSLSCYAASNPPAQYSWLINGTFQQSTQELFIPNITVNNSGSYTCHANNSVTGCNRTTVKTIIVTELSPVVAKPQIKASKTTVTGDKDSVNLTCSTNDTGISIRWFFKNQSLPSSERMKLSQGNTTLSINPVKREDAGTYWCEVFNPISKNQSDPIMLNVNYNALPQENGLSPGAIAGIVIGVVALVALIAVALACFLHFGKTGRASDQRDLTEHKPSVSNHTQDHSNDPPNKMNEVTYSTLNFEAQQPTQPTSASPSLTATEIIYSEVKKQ

T5: human CEACAM6 (human, UniProt P40199 35-320)
T5 construct: whole, on cells; also called CD66c
T5 sequence (looked up): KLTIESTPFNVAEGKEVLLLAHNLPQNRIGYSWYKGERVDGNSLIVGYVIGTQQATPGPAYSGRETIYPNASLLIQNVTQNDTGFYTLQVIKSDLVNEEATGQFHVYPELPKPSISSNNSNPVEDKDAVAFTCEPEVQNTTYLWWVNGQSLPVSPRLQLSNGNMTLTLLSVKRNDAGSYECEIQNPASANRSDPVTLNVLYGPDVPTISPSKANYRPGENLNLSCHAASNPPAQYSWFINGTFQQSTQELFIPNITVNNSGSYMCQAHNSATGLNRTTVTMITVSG


Experiments:
[1] = target: T1, human CEACAM5 (carcinoembryonic …); experiment: flow cytometry, transfected PEAK cells, 10 mcg/ml
From the text: (§1) Vectors encoding the full-length version of human CEACAM 1, 3, 4, 5, 6, 7, 8, 18, 19, 20 and […] are used to express these proteins at the surface of PEAK and/or CHO cells as described in Example 1. Similarly, vectors encoding the full-length version of cyno CEACAM 5 and 6 are also used to express these proteins at the surface of PEAK and/or CHO cells. Non-transfected PEAK and/or CHO cells are used as negative control. Cells are harvested, counted, checked for viability and resuspended at 3×10⁶ cells/ml in FACS buffer (PBS 2% BSA, 0.1% NaN₃). 100 μl of the cell suspension are distributed in V-bottom 96-well plates (3×10⁵ cells/well). The supernatant is removed by centrifugation 3 minutes at 4° C., 1300 rpm and the cells incubated for 15 minutes at 4° C. with increasing concentrations of the antibody according to the invention. The antibodies carrying the anti-CEACAM5 arms to test are diluted in FACS buffer and the concentration range is 30 pM-500 nM. Cells are washed twice with cold FACS buffer and re-incubated for further 15 minutes at 4° C. with a compatible anti-human IgG secondary antibody. Cells are washed twice with cold FACS buffer and resuspended in 300 μl FACS buffer with 1:1500-diluted TOPRO-3 (Invitrogen). Fluorescence is measured using a FACSCalibur™ (BD Biosciences) or a Cytoflex Platform (Beckman Coulter). Dose-response binding curves are fitted using GraphPad Prism8 software. In the same manner, CEACAM1, CEACAM6 and other CEACAMs can be characterized.
(§2) For the bispecific antibodies AB17L3-1/N, AB71L3-1/N, AB72L3-1/N, AB73L3-1/N the MFI measured for binding to CEACAM5 transfected cells was found between 29000 and 41000 (Table 2). In contrast MFI found by using PEAK cells transfected with CEACAM 1,3,4,6,8 were found below 1000 with the only exception of a strong signal for AB72L3-1/N on CEACAM8 transfected cells. When MFI values obtained on transfected cells expressing any given CEACAM are divided by the values obtained on WT PEAK cells, “factors to PEAK WT” can be calculated (Table 3).

human CEACAM3 = target: T2, human CEACAM3; experiment: flow cytometry, transfected PEAK cells
From the text: as §1, §2

human CEACAM4 = target: T3, human CEACAM4; experiment: flow cytometry, transfected PEAK cells
From the text: as §1, §2

human CEACAM1 = target: T4, human CEACAM1; experiment: flow cytometry, transfected PEAK cells
From the text: as §1, §2

human CEACAM6 = target: T5, human CEACAM6; experiment: flow cytometry, transfected PEAK cells
From the text: as §1, §2

Binder | MFI [1] [MFI] | binding result (human CEACAM3) | binding result (human CEACAM4) | binding result (human CEACAM1) | binding result (human CEACAM6)
AB1L3-1/N (bispecific antibody, human IgG1, kappa, lambda, L234A L235A, Kappa-lambda body: common heavy chain (hIgG1 L234A+L235A+P329A), kappa CEA light chain AB1, lambda CD3 light chain L3-1 (1A4); also called parental KL bispecific antibody) heavy: EVQLVESGGGLVQPGGSLKLSCAASGFTFNTYAMNWVRQAPGKGLEWVGRIRSKYNNYATYYADSVKDRFTISRDDSKNTAYLQMNSLKTEDTAVYYCVRHGNFGNSYVSWFAYWGQGTLVTVSSASTKGPSVFPLAPSSKSTSGGTAALGCLVKDYFPEPVTVSWNSGALTSGVHTFPAVLQSSGLYSLSSVVTVPSSSLGTQTYICNVNHKPSNTKVDKRVEPKSCDKTHTCPPCPAPEAAGGPSVFLFPPKPKDTLMISRTPEVTCVVVDVSHEDPEVKFNWYVDGVEVHNAKTKPREEQYNSTYRVVSVLTVLHQDWLNGKEYKCKVSNKALAAPIEKTISKAKGQPREPQVYTLPPSREEMTKNQVSLTCLVKGFYPSDIAVEWESNGQPENNYKTTPPVLDSDGSFFLYSKLTVDKSRWQQGNVFSCSVMHEALHNHYTQKSLSLSPG light 1: EIVLTQSPATLSLSPGERATLSCRASQSVNSNLNWYQQKPGQAPRLLIYHGSNRATGIPARFSGSGSGTDFTLTISSLEPEDFAVYYCQQFDLRHEHNTFGQGTKVEIKRTVAAPSVFIFPPSDEQLKSGTASVVCLLNNFYPREAKVQWKVDNALQSGNSQESVTEQDSKDSTYSLSSTLTLSKADYEKHKVYACEVTHQGLSSPVTKSFNRGEC light 2: QTVVTQEPSLTVSPGGTVTLTCRSSTGAVTTSNYANWFQQKPGQAPRGLIGGTNKRAPGTPARFSGSLLGGKAALTLSGAQPEDEAEYYCALWYKQRWVFGGGTKLTVLGQPKAAPSVTLFPPSSEELQANKATLVCLISDFYPGAVTVAWKADSSPVKAGVETTTPSKQSNNKYAASSYLSLTPEQWKSHRSYSCQVTHEGSTVEKTVAPTECS | 7750 | no binding (tested: 10 mcg/ml) | no binding (tested: 10 mcg/ml) | no binding (tested: 10 mcg/ml) | no binding (tested: 10 mcg/ml)
AB72L3-1/N (bispecific antibody, human IgG1, kappa, lambda, L234A L235A, Kappa-lambda body, lead optimization wave 2) heavy: EVQLVESGGGLVQPGGSLKLSCAASGFTFNTYAMNWVRQAPGKGLEWVGRIRSKYNNYATYYADSVKDRFTISRDDSKNTAYLQMNSLKTEDTAVYYCVRHGNFGNSYVSWFAYWGQGTLVTVSSASTKGPSVFPLAPSSKSTSGGTAALGCLVKDYFPEPVTVSWNSGALTSGVHTFPAVLQSSGLYSLSSVVTVPSSSLGTQTYICNVNHKPSNTKVDKRVEPKSCDKTHTCPPCPAPEAAGGPSVFLFPPKPKDTLMISRTPEVTCVVVDVSHEDPEVKFNWYVDGVEVHNAKTKPREEQYNSTYRVVSVLTVLHQDWLNGKEYKCKVSNKALAAPIEKTISKAKGQPREPQVYTLPPSREEMTKNQVSLTCLVKGFYPSDIAVEWESNGQPENNYKTTPPVLDSDGSFFLYSKLTVDKSRWQQGNVFSCSVMHEALHNHYTQKSLSLSPG light 1: EIVLTQSPATLSLSPGERATLSCRASQSVNSNLNWYQQKPGQAPRLLIYHSTNRPRGIPARFSGSGSGTDFTLTISSLEPEDFAVYYCQQFDYFKEYNTFGQGTKVEIKRTVAAPSVFIFPPSDEQLKSGTASVVCLLNNFYPREAKVQWKVDNALQSGNSQESVTEQDSKDSTYSLSSTLTLSKADYEKHKVYACEVTHQGLSSPVTKSFNRGEC light 2: QTVVTQEPSLTVSPGGTVTLTCRSSTGAVTTSNYANWFQQKPGQAPRGLIGGTNKRAPGTPARFSGSLLGGKAALTLSGAQPEDEAEYYCALWYKQRWVFGGGTKLTVLGQPKAAPSVTLFPPSSEELQANKATLVCLISDFYPGAVTVAWKADSSPVKAGVETTTPSKQSNNKYAASSYLSLTPEQWKSHRSYSCQVTHEGSTVEKTVAPTECS | 41000 | no binding (tested: 10 mcg/ml) | no binding (tested: 10 mcg/ml) | no binding (tested: 10 mcg/ml) | no binding (tested: 10 mcg/ml)

— patent publication US20230136228A1 (LAMKAP BIO ALPHA, published 2023)
